Measurements reported in US20090099029.
Where a chain is given by its changes, count along the chain named. Numbers in names are those of the source.

T1: Bovine, dephosphorylated, Myelin Basic Protein (MBP), P02687
T1 chain: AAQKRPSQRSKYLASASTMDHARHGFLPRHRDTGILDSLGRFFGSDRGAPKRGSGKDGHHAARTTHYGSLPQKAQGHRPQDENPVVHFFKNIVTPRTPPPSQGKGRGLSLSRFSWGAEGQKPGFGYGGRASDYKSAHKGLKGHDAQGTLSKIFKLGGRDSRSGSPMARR

B1: ROS1 (protein)
chain: HRRLKNQKSAKEGVTVLINEDKELAELRGLAAGVGLANACYAIHTLPTQEEIENLPAFPREKLTLRLLLGSGAFGEVYEGTAVDILGVGSGEIKVAVKTLKKGSTDQEKIEFLKEAHLMSKFNHPNILKQLGVCLLNEPQYIILELMEGGDLLTYLRKARMATFYGPLLTLVDLVDLCVDISKGCVYLERMHFIHRDLAARNCLVSVKDYTSPRIVKIGDFGLARDIYKNDYYRKRGEGLLPVRWMAPESLMDGIFTTQSDVWSFGILIWEILTLGHQPYPAHSNLDVLNYVQTGGRLEPPRNCPDDLWNLMTQCWAQEPDQRPTFHRIQDQLQLFRNFFLNSIYKSRDEANNSGVINESFEGEDGDVICLNSDDIMPVALMETKNREGLNYMVLATECGQGEEKSEGPLGSQESESCGLRKEEKEPHADKDFCQEKQVAYCPSGKPEGLNYACLTHSGYGDGSD
B2: MERTK (protein)
chain: KRVQETKFGNAFTEEDSELVVNYIAKKSFCRRAIELTLHSLGVSEELQNKLEDVVIDRNLLILGKILGEGEFGSVMEGNLKQEDGTSLKVAVKTMKLDNSSQREIEEFLSEAACMKDFSHPNVIRLLGVCIEMSSQGIPKPMVILPFMKYGDLHTYLLYSRLETGPKHIPLQTLLKFMVDIALGMEYLSNRNFLHRDLAARNCMLRDDMTVCVADFGLSKKIYSGDYYRQGRIAKMPVKWIAIESLADRVYTSKSDVWAFGVTMWEIATRGMTPYPGVQNHEMYDYLLHGHRLKQPEDCLDELYEIMYSCWRTDPLDRPTFSVLRLQLEKLLESLPDVRNQADVIYVNTQLLESSEGLAQGSTLAPLDLNIDPDSIIASCTPRAAISVVTAEVHDSKPHEGRYILNGGSEEWEDLTSAPSAAVTAEKNSVLPGERLVRNGVSWSHSSMLPLGSSLPDELLFADDSSEGSEVLM
B3: PDGFRA (protein)
chain: KQKPRYEIRWRVIESISPDGHEYIYVDPMQLPYDSRWEFPRDGLVLGRVLGSGAFGKVVEGTAYGLSRSQPVMKVAVKMLKPTARSSEKQALMSELKIMTHLGPHLNIVNLLGACTKSGPIYIITEYCFYGDLVNYLHKNRDSFLSHHPEKPKKELDIFGLNPADESTRSYVILSFENNGDYMDMKQADTTQYVPMLERKEVSKYSDIQRSLYDRPASYKKKSMLDSEVKNLLSDDNSEGLTLLDLLSFTYQVARGMEFLASKNCVHRDLAARNVLLAQGKIVKICDFGLARDIMHDSNYVSKGSTFLPVKWMAPESIFDNLYTTLSDVWSYGILLWEIFSLGGTPYPGMMVDSTFYNKIKSGYRMAKPDHATSEVYEIMVKCWNSEPEKRPSFYHLSEIVENLLPGQYKKSYEKIHLDFLKSDHPAVARMRVDSDNAYIGVTYKNEEDKLKDWEGGLDEQRLSADSGYIIPLPDIDPVPEEEDLGKRNRHSSQTSEESAIETGSSSSTFIKREDETIEDIDMMDDIGIDSSDLVEDSFL
B4: PDGFRA, T674I (protein)
chain: B3 chain with T125I
B5: IGF1R (protein)
chain: RKRNNSRLGNGVLYASVNPEYFSAADVYVPDEWEVAREKITMSRELGQGSFGMVYEGVAKGVVKDEPETRVAIKTVNEAASMRERIEFLNEASVMKEFNCHHVVRLLGVVSQGQPTLVIMELMTRGDLKSYLRSLRPEMENNPVLAPPSLSKMIQMAGEIADGMAYLNANKFVHRDLAARNCMVAEDFTVKIGDFGMTRDIYETDYYRKGGKGLLPVRWMSPESLKDGVFTTYSDVWSFGVVLWEIATLAEQPYQGLSNEQVLRFVMEGGLLDKPDNCPDMLFELMRMCWQYNPKMRPSFLEIISSIKEEMEPGFREVSFYYSEENKLPEPEELDLEPENMESVPLDPSASSSSLPLPDRHSGHKAENGPGPGVLVLRASFDERQPYAHMNGGRKNERALPLPQSSTC
B6: KIT (protein)
chain: TYKYLQKPMYEVQWKVVEEINGNNYVYIDPTQLPYDHKWEFPRNRLSFGKTLGAGAFGKVVEATAYGLIKSDAAMTVAVKMLKPSAHLTEREALMSELKVLSYLGNHMNIVNLLGACTIGGPTLVITEYCCYGDLLNFLRRKRDSFICSKQEDHAEAALYKNLLHSKESSCSDSTNEYMDMKPGVSYVVPTKADKRRSVRIGSYIERDVTPAIMEDDELALDLEDLLSFSYQVAKGMAFLASKNCIHRDLAARNILLTHGRITKICDFGLARDIKNDSNYVVKGNARLPVKWMAPESIFNCVYTFESDVWSYGIFLWELFSLGSSPYPGMPVDSKFYKMIKEGFRMLSPEHAPAEMYDIMKTCWDADPLKRPTFKQIVQLIEKQISESTNHIYSNLANCSPNRQKPVVDHSVRINSVGSTASSSQPLLVHDDV
B7: PDGFRB (protein)
chain: MLWQKKPRYEIRWKVIESVSSDGHEYIYVDPMQLPYDSTWELPRDQLVLGRTLGSGAFGQVVEATAHGLSHSQATMKVAVKMLKSTARSSEKQALMSELKIMSHLGPHLNVVNLLGACTKGGPIYIITEYCRYGDLVDYLHRNKHTFLQHHSDKRRPPSAELYSNALPVGLPLPSHVSLTGESDGGYMDMSKDESVDYVPMLDMKGDVKYADIESSNYMAPYDNYVPSAPERTCRATLINESPVLSYMDLVGFSYQVANGMEFLASKNCVHRDLAARNVLICEGKLVKICDFGLARDIMRDSNYISKGSTFLPLKWMAPESIFNSLYTTLSDVWSFGILLWEIFTLGGTPYPELPMNEQFYNAIKRGYRMAQPAHASDEIYEIMQKCWEEKFEIRPPFSQLVLLLERLLGEGYKKKYQQVDEEFLRSDHPAILRSQARLPGFHGLRSPLDTSSVLYTAVQPNEGDNDYIIPLPDPKPEVADEGPLEGSPSLASSTLNEVNTSSTISCDSPLEPQDEPEPEPQLELQVEPEPELEQLPDSGCPAPRAEAEDSFL
B8: INSRR (protein)
chain: YGKKRNRTLYASVNPEYFSASDMYVPDEWEVPREQISIIRELGQGSFGMVYEGLARGLEAGEESTPVALKTVNELASPRECIEFLKEASVMKAFKCHHVVRLLGVVSQGQPTLVIMELMTRGDLKSHLRSLRPEAENNPGLPQPALGEMIQMAGEIADGMAYLAANKFVHRDLAARNCMVSQDFTVKIGDFGMTRDVYETDYYRKGGKGLLPVRWMAPESLKDGIFTTHSDVWSFGVVLWEIVTLAEQPYQGLSNEQVLKFVMDGGVLEELEGCPLQLQELMSRCWQPNPRLRPSFTHILDSIQEELRPSFRLLSFYYSPECRGARGSLPTTDAEPDSSPTPRDCSPQNGGPGH
B9: TYRO3 (protein)
chain: LRKRRKETRFGQAFDSVMARGEPAVHFRAARSFNRERPERIEATLDSLGISDELKEKLEDVLIPEQQFTLGRMLGKGEFGSVREAQLKQEDGSFVKVAVKMLKADIIASSDIEEFLREAACMKEFDHPHVAKLVGVSLRSRAKGRLPIPMVILPFMKHGDLHAFLLASRIGENPFNLPLQTLIRFMVDIACGMEYLSSRNFIHRDLAARNCMLAEDMTVCVADFGLSRKIYSGDYYRQGCASKLPVKWLALESLADNLYTVQSDVWAFGVTMWEIMTRGQTPYAGIENAEIYNYLIGGNRLKQPPECMEDVYDLMYQCWSADPKQRPSFTCLRMELENILGQLSVLSASQDPLYINIERAEEPTAGGSLELPGRDQPYSGAGDGSGMGAVGGTPSDCRYILTPGGLAEQPGQAEHQPESPLNETQRLLLLQQGLLPHSSC
B10: RET (protein)
chain: HCYHKFAHKPPISSAEMTFRRPAQAFPVSYSSSGARRPSLDSMENQVSVDAFKILEDPKWEFPRKNLVLGKTLGEGEFGKVVKATAFHLKGRAGYTTVAVKMLKENASPSELRDLLSEFNVLKQVNHPHVIKLYGACSQDGPLLLIVEYAKYGSLRGFLRESRKVGPGYLGSGGSRNSSSLDHPDERALTMGDLISFAWQISQGMQYLAEMKLVHRDLAARNILVAEGRKMKISDFGLSRDVYEEDSYVKRSQGRIPVKWMAIESLFDHIYTTQSDVWSFGVLLWEIVTLGGNPYPGIPPERLFNLLKTGHRMERPDNCSEEMYRLMLQCWKQEPDKRPVFADISKDLEKMMVKRRDYLDLAASTPSDSLIYDDGLSEEETPLVDCNNAPLPRALPSTWIENKLYGMSDPNWPGESPVPLTRADGTNTGFPRYPNDSVYANWMLSPSAAKLMDTFDS
B11: CSF1R (protein)
chain: YKYKQKPKYQVRWKIIESYEGNSYTFIDPTQLPYNEKWEFPRNNLQFGKTLGAGAFGKVVEATAFGLGKEDAVLKVAVKMLKSTAHADEKEALMSELKIMSHLGQHENIVNLLGACTHGGPVLVITEYCCYGDLLNFLRRKAEAMLGPSLSPGQDPEGGVDYKNIHLEKKYVRRDSGFSSQGVDTYVEMRPVSTSSNDSFSEQDLDKEDGRPLELRDLLHFSSQVAQGMAFLASKNCIHRDVAARNVLLTNGHVAKIGDFGLARDIMNDSNYIVKGNARLPVKWMAPESIFDCVYTVQSDVWSYGILLWEIFSLGLNPYPGILVNSKFYKLVKDGYQMAQPAFAPKNIYSIMQACWALEPTHRPTFQQICSFLQEQAQEDRRERDYTNLPSSSRSGGSGSSSSELEEESSSEHLTCCEQGDIAQPLLQPNNYQFC
B12: MUSK (protein)
chain: CCRRRKQWKNKKRESAAVTLTTLPSELLLDRLHPNPMYQRMPLLLNPKLLSLEYPRNNIEYVRDIGEGAFGRVFQARAPGLLPYEPFTMVAVKMLKEEASADMQADFQREAALMAEFDNPNIVKLLGVCAVGKPMCLLFEYMAYGDLNEFLRSMSPHTVCSLSHSDLSMRAQVSSPGPPPLSCAEQLCIARQVAAGMAYLSERKFVHRDLATRNCLVGENMVVKIADFGLSRNIYSADYYKANENDAIPIRWMPPESIFYNRYTTESDVWAYGVVLWEIFSYGLQPYYGMAHEEVIYYVRDGNILSCPENCPVELYNLMRLCWSKLPADRPSFTSIHRILERMCERAEGTVSV
B13: MET (protein)
chain: KKRKQIKDLGSELVRYDARVHTPHLDRLVSARSVSPTTEMVSNESVDYRATFPEDQFPNSSQNGSCRQVQYPLTDMSPILTSGDSDISSPLLQNTVHIDLSALNPELVQAVQHVVIGPSSLIVHFNEVIGRGHFGCVYHGTLLDNDGKKIHCAVKSLNRITDIGEVSQFLTEGIIMKDFSHPNVLSLLGICLRSEGSPLVVLPYMKHGDLRNFIRNETHNPTVKDLIGFGLQVAKGMKYLASKKFVHRDLAARNCMLDEKFTVKVADFGLARDMYDKEYYSVHNKTGAKLPVKWMALESLQTQKFTTKSDVWSFGVLLWELMTRGAPPYPDVNTFDITVYLLQGRRLLQPEYCPDPLYEVMLKCWHPKAEMRPSFSELVSRISAIFSTFIGEHYVHVNATYVNVKCVAPYPSLLSSEDNADDEVDTRPASFWETS

Target: T1, Bovine, dephosphorylated, Myelin Basic …

Row | Protein | MBP Kinase Activity
1 | B1 | Strong
2 | B2 | Strong
3 | B3 | Strong
4 | B4 | Negative
5 | B5 | Strong
6 | B6 | Negative
7 | B7 | Strong
8 | B8 | Negative
9 | B9 | Strong
10 | B10 | Strong
11 | B11 | Strong
12 | B12 | Negative
13 | B13 | Strong
